In the DeepSol protein solubility set:

assay: soluble on expression in E. coli; label from the status in PepcDB or PDB records

Row | Sequence | soluble on expression in E. coli
1 | MLIALTGTPGTGKSSVAERLRERGYKVATVVELAEKHGCIIDEEDGEIVIDVESLAARIDFEGIVEGHLSHLLKPDVAIVLRCNPAVLRERLKGRNWSEEKLLENLEAEMLDVILVEALEHASEVYEIDTTEMSLEEVIEAVEAIIRGDREARKRYKPGGIDWLSELEDRIEEFMRKVLEHHHHHH | soluble
2 | MDPKPINEGMLLEDHDHGMPEEEEITEDDMNGIHNIEEDTRTISEIAMELHHPNKSQVLLDQERFLPIANVVRIMKTQMDPQAKLAKDAKECAQECVSEFISFIASEAAEICNITKRKTITADDLLTAMEATGFDNYAEPMRIFLQKYRQAHKITGPIHRTHPDYVRPPQFQMDPFVRPLFFDTEQGRRCTETQYVINGSEIVKNAPLGEEWNEQTGTLNTRADGYYMEEPMEPMPMEEVEIEEHEEIIEQDSLGAIALEQQGQMQIYVDPKTKQHFAAKETPNGMELYPLIIQDTPLQLENVSGPNQFVMNMPDGRAIPHGMGQEEPQPVSSSSVMRKIGQNPSSYAQQHHHVSHVEQHDDVEYEEEEEVDQVEEDTVPVPIAPRPAATRVQPKRTPTKRKK | not soluble
3 | PHMSGLKKFFPYSTNVLKGAAADIALPSLAGKTVFFYFSASWCPPCRAFTPQLIDFYKAHAESKNFEVMLISWDESAEDFKDYYAKMPWLALPFEDRKGMEFLTTGFDVKSIPTLVGVEADSGNIITTQARTMVVKDPEAKDFPWPNVEAKK | soluble
4 | MNKLITVIRDFSYSVYNWCYETVIGENTRKYKMTWKVPKESLKIIVNKNADARMQRELENRTAKDEANALTSRRRVFGSYALIGTQRAEFIQFRQIKHIDITNASLDFLYNLKQLKHDNLANFYGIQLNDDLNTMTILHALVERGTLEEFCLDRDFGMDETFKSAFMRDILKGLQYLHLSPVAYHGHLHAATCLIDINWVLKIALYGVTNFVCDNFDAENITMPDRSDYTISYAQYVCFPPEHIREYDATGKLPTRFVRGSKQGDIYCVGMIFYMMIEREDPYRLIHSVERPGSGLMMEILDHNLMPFISNNETQEDTLLDKCKECWNRDPEKRPTIENLRNAIAICYADSKGNLIDQMIRMNEKYADELETLVAARSADLALAQMQTMRLLNEMLPASIAKDLKNGVIAPARSYASATVMFVQICDFIVILKRRPPKEVIGFLNDIFDQFDTVIKRHDVETTGETYMVASGVPNENEGRHVFEVAEMSLEIRAISLSYTLENDKNYKLRVRIGFHAGPIAAGVIGIKNPRYCLFGDTVNFASRMQSNCPPLQIQTSEITARMLLATHEYKLVKRGIVHVKGKGEVNCYWLNEHIHKDEEIEESGTISHPLES | not soluble
5 | MAESVFAERIVQNLLDTDFYKLTMMQAVLHNYPNAEVEWEFRCRNAEDLRPYLAEIRYQIERLAEVEVTADQLAFLERIPFMKPDFIRFLSLFRFNLRYVHTGIEDGQLAIRLRGPWLHVILFEVPLLAIVSEVRNRYRYREVVLEQVGEQLYRKLDWLSAQASSEELAEFQVADFGTRRRFSYRTQEEVVHILKRDFPGRFVGTSNVHLAREYDLKPIGTMAHEWLMAHQQLGPRLVDSQQAALDCWVREYRGQLGIALTDCITMDAFLDDFDLYFAKLFDGLRHDSGDPLAWAEKAIAHYRRLGIDPLSKTLVFSDGLDMPKALQLFRALRGKINVSFGIGTNLTCDIPGVEPMNIVLKMTACNGHPVAKISDAPGKTQCRDENFVAYLRHVFNVPA | not soluble
6 | MGSDKIHHHHHHMTSARRMLIDANTTPFYHVINRCVRRAFLCGEDKLTGRSYEHRRGWIVDKIKALSAIFCIDICAYAVMSNHYHLVLKIDVEKAKSLTQKDIISRWCQITKGHAIATKYMNGDALIEGERMLLDALIAEWHERLSSISWFMRCLNEEIARKANREDECKGAFWEGRFKSQALLDEQALLACMMYVDLNPIRAGIADSLQSSDFTSIQERMNSLNTHSIAPKLAKITVDNTLSIPHKSLAKFEGATHIHQQTGIPFHFADYLELIDWTGRAIRHDKKGFIDNLRPKLLNELGIASDAWLLSAKEFRRQYSGVSGRWDAMCAFKHKQGGKWCRGKSHSQALHPEQINGLTLR | not soluble
